In publication PMC5119889:

Legend:
[1] = biological target: polymerized microtubules from Cos7 lysate; assay: tubulin cosedimentation assay, band densitometry of immunoblots; conditions: pre-cleared lysates of Cos7 cells expressing FLAG tagged GIV-WT or SD mutant; n = 3; parent: est. 0.90; read off a plot
[2] = biological target: α1A-tubulin (α-Tubulin-CT) 399-451 (UniProt Q71U36); assay: GST pull-down, anti-His blot; conditions: sites S245

GIV-FLAG WT, full length human GIV (from UniProt Q3V6T2) S245D
other: Ratio of GIV (Pellet:Supernatant) [1]: 2

GIV (Girdin) 1-440 (from UniProt Q3V6T2) S245A, AMPK-treated
binding against the reference ([2]; reference: wild type, AMPK-treated): lost

GIV (Girdin) 1-440 (from UniProt Q3V6T2) His-GIV-NT WT phosphorylated by AMPK
binding against the reference ([2]; reference: His-GIV-NT WT, not phosphorylated): gained
